Experimental data from US20170247475A1 (Boehringer Ingelheim, published 2017).

Columns and labels:
hAng2 [1] = molecular target: T1, hAng2; test: cell-based or functional assay
T1 chain: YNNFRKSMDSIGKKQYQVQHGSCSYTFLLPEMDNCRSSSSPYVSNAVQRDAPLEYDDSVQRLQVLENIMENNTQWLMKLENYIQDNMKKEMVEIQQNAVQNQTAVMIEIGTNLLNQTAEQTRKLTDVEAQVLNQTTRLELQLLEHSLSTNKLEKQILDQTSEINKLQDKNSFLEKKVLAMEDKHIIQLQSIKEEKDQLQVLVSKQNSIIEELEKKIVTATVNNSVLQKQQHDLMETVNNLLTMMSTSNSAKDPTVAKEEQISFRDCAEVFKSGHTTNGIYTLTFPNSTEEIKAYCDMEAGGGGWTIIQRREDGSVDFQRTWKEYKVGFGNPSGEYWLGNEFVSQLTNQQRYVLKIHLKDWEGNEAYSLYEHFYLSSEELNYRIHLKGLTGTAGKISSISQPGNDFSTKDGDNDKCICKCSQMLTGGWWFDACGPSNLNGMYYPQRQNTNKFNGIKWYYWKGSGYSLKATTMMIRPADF

mAng2 [2] = molecular target: T2, mAng2; test: competition ELISA, blocking of mAng2 binding to mTie2-Fc
T2 construct: may be the same protein as m22 (mouse Ang2-FLD); also called mouse Ang2
T2 chain: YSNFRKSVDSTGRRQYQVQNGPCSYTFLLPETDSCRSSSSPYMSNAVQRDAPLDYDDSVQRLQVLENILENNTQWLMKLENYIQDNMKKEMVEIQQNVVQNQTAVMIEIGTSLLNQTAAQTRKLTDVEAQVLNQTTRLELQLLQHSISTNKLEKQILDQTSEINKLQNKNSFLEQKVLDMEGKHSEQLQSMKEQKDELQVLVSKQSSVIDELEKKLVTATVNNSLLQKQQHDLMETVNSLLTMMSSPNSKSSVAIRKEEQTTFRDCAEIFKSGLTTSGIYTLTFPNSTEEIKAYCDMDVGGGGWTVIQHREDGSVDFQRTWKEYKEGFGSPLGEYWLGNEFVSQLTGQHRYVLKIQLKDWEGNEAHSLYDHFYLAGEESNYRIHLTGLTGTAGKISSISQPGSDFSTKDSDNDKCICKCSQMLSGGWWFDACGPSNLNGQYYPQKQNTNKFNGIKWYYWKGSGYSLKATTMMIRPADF

hAng2 [3] = molecular target: T1, hAng2; test: competition ELISA, blocking of hAng2 binding to hTie2-Fc
cAng2 [4] = molecular target: T3, cAng2 (cynomolgus monkey); test: competition ELISA, blocking of cAng2 binding to cTie2-Fc
T3 construct: may be the same protein as m21 (cyno Ang2-FLD); also called cyno Ang2

mAng2 [5] = molecular target: T4, mAng2; test: competition ELISA mAng2/mTie2-Fc; blocked: mTie2-Fc
T4 construct: also called mouse Ang2
T4 chain: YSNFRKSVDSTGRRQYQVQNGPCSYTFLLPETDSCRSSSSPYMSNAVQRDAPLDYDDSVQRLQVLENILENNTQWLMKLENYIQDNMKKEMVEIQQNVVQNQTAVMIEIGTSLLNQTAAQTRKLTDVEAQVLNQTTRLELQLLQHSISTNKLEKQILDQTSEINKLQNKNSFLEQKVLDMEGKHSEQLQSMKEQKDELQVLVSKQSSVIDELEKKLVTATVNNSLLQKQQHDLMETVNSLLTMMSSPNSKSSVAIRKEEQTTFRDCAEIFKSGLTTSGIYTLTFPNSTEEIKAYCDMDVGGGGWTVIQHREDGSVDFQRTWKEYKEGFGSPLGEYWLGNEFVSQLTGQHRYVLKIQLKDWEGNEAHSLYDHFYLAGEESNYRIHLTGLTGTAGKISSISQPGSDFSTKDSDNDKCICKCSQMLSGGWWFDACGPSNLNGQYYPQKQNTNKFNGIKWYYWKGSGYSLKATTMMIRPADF

mAng2 [6] = molecular target: T4, mAng2; test: as above
cAng2 [7] = molecular target: T5, cAng2 (cynomolgus monkey); test: competition ELISA cAng2/cTie2-Fc; blocked: cTie2-Fc
T5 construct: construct not given; also called cyno Ang2

cAng2 [8] = molecular target: T5, cAng2; test: as above; remark: listed apart in the source
mAng2 [9] = molecular target: T4, mAng2; test: competition ELISA mAng2/mTie2-Fc; blocked: mTie2-Fc
cAng2 [10] = molecular target: T5, cAng2; test: competition ELISA cAng2/cTie2-Fc; blocked: cTie2-Fc; remark: listed apart in the source
hAng2 [11] = molecular target: T6, hAng2; test: competition ELISA hAng2/hTie2-Fc; blocked: hTie2-Fc
T6 construct: also called human Ang2
T6 chain: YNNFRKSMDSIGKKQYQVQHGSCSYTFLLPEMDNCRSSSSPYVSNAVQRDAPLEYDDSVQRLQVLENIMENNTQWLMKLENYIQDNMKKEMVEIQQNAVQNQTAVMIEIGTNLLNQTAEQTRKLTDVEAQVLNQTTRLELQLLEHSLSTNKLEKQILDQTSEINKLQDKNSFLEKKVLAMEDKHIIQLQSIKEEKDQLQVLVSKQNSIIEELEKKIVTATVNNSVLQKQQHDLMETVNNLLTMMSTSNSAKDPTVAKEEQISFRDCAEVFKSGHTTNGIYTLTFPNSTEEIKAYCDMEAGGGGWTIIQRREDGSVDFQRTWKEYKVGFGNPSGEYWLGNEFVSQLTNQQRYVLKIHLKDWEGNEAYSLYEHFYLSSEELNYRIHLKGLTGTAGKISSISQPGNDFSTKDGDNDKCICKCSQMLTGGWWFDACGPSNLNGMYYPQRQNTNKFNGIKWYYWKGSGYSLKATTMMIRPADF

human VEGFR2-Fc chimera = molecular target: T7, human VEGFR2-Fc chimera (human, UniProt P35968 20-764); test: binding ELISA on coated human VEGF121
T7 construct: bought (R&D Systems); also called hVEGFR2-Fc; VEGFR2-huFc
T7 sequence (P35968 20-764, change not shown): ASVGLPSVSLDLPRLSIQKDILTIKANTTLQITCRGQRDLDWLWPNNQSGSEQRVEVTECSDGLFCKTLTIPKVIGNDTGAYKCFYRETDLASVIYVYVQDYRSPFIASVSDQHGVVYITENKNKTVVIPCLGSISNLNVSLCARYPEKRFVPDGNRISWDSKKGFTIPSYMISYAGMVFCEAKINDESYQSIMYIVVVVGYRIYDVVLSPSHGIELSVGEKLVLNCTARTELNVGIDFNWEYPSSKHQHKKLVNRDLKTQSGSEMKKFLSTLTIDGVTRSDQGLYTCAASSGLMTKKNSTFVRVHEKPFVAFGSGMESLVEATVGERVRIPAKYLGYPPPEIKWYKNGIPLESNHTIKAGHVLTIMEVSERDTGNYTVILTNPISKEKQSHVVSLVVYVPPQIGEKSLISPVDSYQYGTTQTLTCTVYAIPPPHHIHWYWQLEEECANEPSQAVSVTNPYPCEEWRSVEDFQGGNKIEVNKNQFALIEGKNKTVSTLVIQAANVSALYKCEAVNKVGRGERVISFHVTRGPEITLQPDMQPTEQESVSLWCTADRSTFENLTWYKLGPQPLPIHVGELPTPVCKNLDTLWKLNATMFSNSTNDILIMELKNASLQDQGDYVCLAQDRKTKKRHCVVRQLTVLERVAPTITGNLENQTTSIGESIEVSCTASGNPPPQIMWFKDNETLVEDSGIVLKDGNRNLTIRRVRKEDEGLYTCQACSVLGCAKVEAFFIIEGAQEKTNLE
Experimental: Binding to recombinant human VEGF121 is assessed via a solid phase binding ELISA. Briefly, recombinant human VEGF121 (R&D Systems, Minneapolis, Minn., USA) is coated overnight at 4° C. at 1 μg/mL in a 96-well MaxiSorp plate (Nunc, Wiesbaden, Germany). Wells are blocked with a casein solution (1% in PBS).

[12] = molecular target: T8, recombinant human VEGF165 (human, UniProt P15692-4 27-191); test: Biacore on VEGF165 (see Example 5.5)
T8 construct: also called hVEGF165; rhVEGF165
T8 sequence (P15692 other isoform, or with tags, fused parts or gaps limits assumed): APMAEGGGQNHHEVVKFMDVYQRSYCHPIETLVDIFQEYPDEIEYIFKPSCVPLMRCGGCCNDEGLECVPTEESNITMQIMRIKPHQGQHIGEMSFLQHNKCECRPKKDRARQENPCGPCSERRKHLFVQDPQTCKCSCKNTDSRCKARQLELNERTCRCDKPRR
Experimental: Samples are injected for 2 min and allowed to dissociate up to 20 min at a flow rate of 45 μI/min. In between sample injections, the chip surface is regenerated with 100 mM HCl. HBS-EP+(Hepes buffer pH7.4+EDTA) is used as running buffer. Binding curves are fitted using a Two State Reaction model by Biacore T100 Evaluation Software v2.0.1.
Affinity of VEGFBII032 is determined by Biacore (see Example 5.5) and the melting temperature is determined in the thermal shift assay as described above.

[13] = molecular target: T8, recombinant human VEGF165; test: ProteOn, periplasmic extract 1/10 on hVEGF165 chip
From the text: One additional variant is constructed in which the potential oxidation site at position M30 (CDR1 region, see FIG. 19 indicated as bold italic residue) is removed by introduction of a M30I mutation.

B1: 00921 (VHH)
VHH: EVQLVESGGGLVQPGGSLRLSCAASGFTFDDYALGWFRQAPGKEREGVSCIRCSGGSTYYADSVKGRFTISSDNSKNTVYLQMNSLRPEDTAVYYCAASIVPRSKLEPYEYDAWGQGTLVTVSS
hAng2 [1]
  IC50 (read off the curve), hAng2 mediated HUVEC survival: ~30 nM
mAng2 [2]
  IC50 (read off the curve): ~30 nM
hAng2 [3]
  IC50 (read off the curve): ~20 nM
cAng2 [4]
  IC50 (read off the curve): ~50 nM

B2: 1D01 (VHH)
VHH: EVQLVESGGGLVQAGGSLRLSCAASGFTFDDYALGWFRQAAGKEREGVSCIRCSDGSTYYADSVKGRFTISSDNAKNTVYLQMNSLKPEDTAVYYCAASIVPRSKLEPYEYDAWGQGTQVTVSS
mAng2 [5]
  IC50 (read off the curve): ~10 nM
mAng2 [6]
  IC50 (read off the curve): ~10 nM
cAng2 [7]
  IC50 (read off the curve): ~10 nM
cAng2 [8]
  IC50 (read off the curve): ~10 nM
mAng2 [9]
  IC50 (read off the curve): ~10 nM
cAng2 [10]
  IC50 (read off the curve): ~10 nM
hAng2 [11]
  IC50 (read off the curve): ~8 nM

B3: recombinant human VEGF121 (ligand, UniProt P15692-9 27-147, looked up)
chain: APMAEGGGQNHHEVVKFMDVYQRSYCHPIETLVDIFQEYPDEIEYIFKPSCVPLMRCGGCCNDEGLECVPTEESNITMQIMRIKPHQGQHIGEMSFLQHNKCECRPKKDRARQEKCDKPRR
notes: also called rhVEGF121; hVEGF121
Human VEGFR2-Fc chimera
  binding result: binds

B4: VEGFBII05B05 (VHH)
VHH: EVQLVESGGGLVQPGGSLRLSCVASGIRFMSMAWYRQAPGKHRELVARISSGGTTAYVDSVKGRFTISRDNSKNTVYLQMNSLKAEDTAVYYCNTFSSRPNPWGAGTQVTVSS
notes: also called VEGFBII5B05; VEGFBII5B05(wt)
[12]
  Kd: 32 nM
[13]
  Binding level (RU): 242 RU
  koff: 0.0615 s⁻¹

B5: VEGFBII032 (VHH)
VHH: EVQLVESGGGLVQPGGSLRLSCAASGIRFISMAWYRQAPGKQRELVARISSGGTTAYADSVKGRFTISRDNSKNTVYLQMNSLRAEDTAVYYCNTFSSRPNPWGQGTLVTVSS
notes: also called VEGFBII0032
[12]
  Kd: 44 nM
